As usually defined, the Kd is the free concentration of one partner at which half of the binding sites on the other are occupied at equilibrium, for simple one-to-one binding. The Km is the substrate concentration at which the rate is half of its maximum. By kcat is commonly meant the number of substrate molecules converted per active site and unit of time at saturation. For orientation: stoichiometry N means a count of units in the complex or per binding partner.

These results are taken from PMC3862839, “From Knock-Out Phenotype to Three-Dimensional Structure of a Promising Antibiotic Target from Streptococcus pneumoniae” (PLoS ONE, 2013).

The target of series [1] is Ec-DHDPS (dimer) (Escherichia coli) (UniProt P0A6L2). To be noted: cited from earlier work.
Series [2] concerns the molecule itself. Description: AUC; sedimentation equilibrium, 10,000 and 18,000 rpm, 20°C, 20 mM Tris-HCl pH 8.0, 150 mM NaCl; 296, 355 and 740 nM Sp-DHDPS; global fit to a dimer-tetramer model (SEDPHAT); tetramer to dimers.
Substrate in series [3]: N[C@@H](CC=O)C(=O)O
In words: purified protein. To be noted: co-substrate pyruvate 0.5-16 mM, 250 mM HEPES pH 8.0, 30 °C, 0.2 mM NADPH, 20 nM enzyme, global ping-pong fit without substrate inhibition.
Description: (§1) DHDPS-DHDPR coupled assay, NADPH oxidation on Sp-DHDPS (dihydrodipicolinate synthase)

Substrate in series [4]: CC(=O)C(=O)O
Description: purified protein. The note with it: co-substrate (S)-ASA 0-0.48 mM, 250 mM HEPES pH 8.0, 30 °C, 0.2 mM NADPH, 20 nM enzyme, global ping-pong fit without substrate inhibition.
Description: as §1

Series [5] deals with the molecule itself. In words: AUC; sedimentation velocity, 40,000 rpm, 20°C, 20 mM Tris-HCl pH 8.0, 150 mM NaCl; Sp-DHDPS at 4.5 µM and at 740 nM; c(s) and c(M) distributions (SEDFIT).

Regarding Ec-DHDPS (dimer) (from UniProt P0A6L2), in series [1], the Kd is 76 nM.

B1: Streptococcus pneumoniae dihydrodipicolinate synthase (enzyme, UniProt Q97R25 1-311, looked up)
chain: MSYQDLKKCKIITAFITPFHEDGSINFDAIPALIEHLLAHHTDGILLAGTTAESPTLTHDEELELFAAVQKVVNGRVPLIAGVGTNDTRDSIEFVKEVAEFGGFAAGLAIVPYYNKPSQEGMYQHFKTIADASDLPIIIYNIPGRVVVELTPETMLRLADHPNIIGVKECTSLANMAYLIEHKPEEFLIYTGEDGDAFHAMNLGADGVISVASHTNGDEMHEMFTAIAESDMKKAAAIQRKFIPKVNALFSYPSPAPVKAILNYMGFEAGPTRLPLVPAPEEDAKRIIKVVVDGDYEATKATVTGVLRPDY
notes: Dihydrodipicolinate synthase (DHDPS, product of dapA) of Streptococcus pneumoniae; Homotetramer (dimer of 'tight' dimers) in solution and in the crystal; also called Sp-DHDPS; sp-DHDPS
Regarding B1, the affinity in series [2], expressed as Kd, was 1.7 nM. Further, in series [3], the Km was 44 ± 3 µM and the kcat was determined as 22 s⁻¹. Further, in series [4], the Km is 2550 ± 50 µM and the kcat was determined as 22 s⁻¹. Moreover, the “stoichiometry N” value in series [5] stood at 4.
